Values quoted from earlier work as cited in article PMC3359286.

Biological target: hemoglobin (Homo sapiens) (UniProt P69905)
Sequence (P69905 2-142, chain 1 of 2): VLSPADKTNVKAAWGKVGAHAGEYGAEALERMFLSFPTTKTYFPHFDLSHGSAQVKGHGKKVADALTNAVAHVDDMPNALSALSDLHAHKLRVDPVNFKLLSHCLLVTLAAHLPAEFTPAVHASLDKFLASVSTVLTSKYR
Sequence (P68871 2-147, chain 2 of 2, further chain): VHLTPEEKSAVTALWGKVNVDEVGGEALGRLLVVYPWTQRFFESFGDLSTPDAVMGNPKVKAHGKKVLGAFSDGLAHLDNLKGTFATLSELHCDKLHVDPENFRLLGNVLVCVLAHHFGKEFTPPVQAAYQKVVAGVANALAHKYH

Substance: IsdB (from UniProt A7X146)
- Kd: 55 nM
